In US12655409B2, “Recombinant lysin and its use in the treatment of Gram-negative bacterial infections” (TELUM THERAPEUTICS S.L., priority 2020, dated 2026):

Key:
E. coli ATCC 25922 = assay: MIC by microdilution in TP-Na 10 mM pH 6.15; format: cell-based, Escherichia coli
Experimental: The IKB206tags endolysin was purified from the Escherichia coli BL21 (DE3) strain, as previously described.
Checkerboard tests were assessed by the microdilution method, as previously described (Moody JA 1992, Moellering E G., Jr.1996). […] Each microtiter well contained 100 μl of a E. coli inoculum of 1×10^5 CFUs mL^−1, with or without the corresponding compounds, in a final volume of 200 μl of Sodium phosphate (TP-Na) buffer 10 mM pH 6.15 per well and the plates were incubated at 37° C. for 17 h.

[1] = system: E. coli strain ATCC 25922; assay: Enzyme bactericidal activity assay on E. coli ATCC 25922; format: cell-based, Escherichia coli
Experimental: (§1) Briefly, the different bacterial cultures were incubated in the specific media (Table 1) at 37° C. or 30° C., according to the strain, until reaching an A600 of 0.3. The cells were then deposited by centrifugation (4500×g, 10 min) and washed twice with the corresponding buffer, with the A600 being adjusted to ≈0.3. A volume of 160 μl of the bacterial suspension was transferred to sterile 96-well plates to which there were added 40 μl of the enzyme under study in a range of doses comprised between 1 and 60 μg mL^−1. The control wells were treated with the same volume of buffer […]. The plates were incubated at 37° C. Samples were taken at different times, serial dilutions performed, and they were seeded in plates containing the specific medium to determine viable bacteria. The experiments were repeated at least 3 times. The bactericidal effect of IKB206 (and its variants) was quantified as the number of logs reduced in the presence of treatment, after a given incubation time (log10 (N0/Ni), where N0=number of CFU mL^−1 before treatment, and Ni=number of CFU mL^−1 after the corresponding incubation time in the presence of each treatment).

[2] = system: M. lysodeikticus lyophilized cells; assay: Enzyme specific activity assay (turbidometric, A450 decrease); format: biochemical, Micrococcus lysodeikticus; settings: 37° C., 10 mM Na2HPO4/NaH2PO4 pH 6
Experimental: The specific activity (U mG-1) was determined using a suspension of 0.6 mg mL^−1 of M. lysodeikticus lyophilized cells as substrate resuspended in cold buffer of the enzyme (10 mM Na2HPO4/NaH2PO4, PH 6 for IKB206tags and 50 mM K2HPO4/KH2PO4, pH 6.2 for egg white lysozyme) and incubating this suspension at different concentrations of the enzyme. Egg white lysozyme (Fisher BioReagents™ Lysozyme) was used as a control. Specifically, 100 μL of the M. lysodeikticus suspension were plated, in triplicate, into a multi-well plate and 100 μL of the different enzyme concentrations were added to the corresponding well. The plate was incubated at the appropriate temperature into a thermostated spectrophotometer (37° C. for IKB206tags and 25° C. for egg white lysozyme) and the A450 decrease was monitored over 10 min.
Unit definition: 1 unit is that amount of enzyme needed to catalyze a decrease in absorbance at 450 nm of 0.001/min at the appropriate temperature and pH of each lysozyme in a 1 cm cuvette due to lysis using a ˜0.4-0.6 mg/mL suspension of M. lysodeikticus.

[3] = system: E. coli strain DSM 17076 with serotype O157: H7; assay: Enzyme bactericidal activity assay on E. coli serotype O157:H7; format: cell-based, Escherichia coli; settings: 15 μg mL^−1
Experimental: as §1

For C[C@@H](O)[C@H]1C(=O)N2C(C(=O)O)=C(SCCN=CN)C[C@H]12 [Imepenem], the MIC (E. coli ATCC 25922) was 2.34 µg/mL.

For C[C@@H](O)[C@H]1C(=O)N2C(C(=O)O)=C(S[C@@H]3CN[C@H](C(=O)N(C)C)C3)[C@H](C)[C@H]12 [Meropenem], the MIC (E. coli ATCC 25922) was 0.59 µg/mL.

B1: IKB206AD8: putative endolysin from phage Arya alone, catalytic domain of IKB206 without the D8 domain (protein)
chain: MKTSPNGIAVTKYFESFEARAYPDPATGGKPYTIGFGTTVYPSGAPVRLGDVCTKEQAEKYLQNDLAKFEKIVSDAVRVPLNQGQFDALVSFTYNLGPANLRSSTLLKKLNAGDYAGAAKEFPRWNRANGKVMKGLTRRRAAEQCLFEGMGGASAIERGVAAA
modifications: Enterobacter phage Arya; (1)..(163) Endolysin
In the case of B1, the “bactericidal activity in the absence of the D8 domain” value [1] is reported as “presented bactericidal activity”, the “incubation times to obtain the same levels of bactericidal activity as IKB206” value [1] is reported as “longer incubation times were needed” and the “reduction in CFU/mL” value ([1]; 15 μg mL^−1, 60 minutes) is reported as “about 3 log”. The “reduction in CFU/mL” value ([1]; 15 μg mL^−1, 180 minutes) was “about 5 log”.

B2: IKB206tags: IKB206 with S-tag at the N-terminal end, 6-His tag at the C-terminal end and thrombin cleavage sites; 329 amino acids (protein)
chain: MKETAAAKFERQHMDSPDLGTLVPRGSMAISDPMKTSPNGIAVTKYFESFEARAYPDPATGGKPYTIGFGTTVYPSGAPVRLGDVCTKEQAEKYLQNDLAKFEKIVSDAVRVPLNQGQFDALVSFTYNLGPANLRSSTLLKKLNAGDYAGAAKEFPRWNRANGKVMKGLTRRRAAEQCLFEGMGGASAIERGVAAANSGTPKNVSRGTSSTKTTPKYKVKNGDNLTKIAKKHNTTVATLLKLNPGIKDPNMIRVGQTLNVTGSGGKTHKVKSGDTLSKIAVDNKTTVSKLMNLNPEITNPNHIKVGQTIRLSLGTLVPRGSLEHHHHHH
modifications: S-tag, 6-His tag, thrombin sites; chimeric endolysin (IKB206tags)
notes: IKB206 with S-tag at the N-terminal end, 6-His tag at the C-terminal end and thrombin cleavage sites; 329 amino acids
For B2, the “reduction in CFU mL^−1” value ([1]; 5 μg mL^−1, 15 min of incubation) was “significant”, the “incubation time for killing the entire culture” value ([1]; 15 μg mL^−1) was 30 min and the “reduction of the number of CFU mL^−1” value ([1]; 15 μg mL^−1, 5 minutes of incubation) was “more than 2 logs”. For the same molecule, the “incubation time for killing the entire culture” value ([1]; 60 μg mL^−1) was 15 min, the specific activity [2] was “around 8100 U mg^−1” and the “bactericidal activity on serotype O157:H7” value [3] was “significantly reduced the number of E. coli strain DSM 17076 cells, although it was not capable of killing the entire culture”.
